Data on two molecules can be found in article PMC11093611.

In the data set the target is T1, rCf48 (recombinant Flag-Cf48 micropeptide) (mouse, UniProt Q3UR78 29-90).
T1 sequence: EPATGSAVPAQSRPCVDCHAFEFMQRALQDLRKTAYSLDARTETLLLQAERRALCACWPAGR
The experiment in a line: EMSA; Thermo LightShift Chemiluminescent RNA EMSA kit (20158); buffer, salt, pH and temperature not given in the material. Conditions: protein: recombinant; tags: FLAG (Fc tag removed with enterokinase); label: biotin.

B1: Serpine1 mRNA 3'-most 134 nt WT probe (ssRNA)
RNA: CCAAAUGUGGGGUCACAUGGUCUUGAAUUUUGUGGGGUACAUAUGCCUUUGUUUGUUUGUUUUCACUUUUGAUAUAUAAACAGGUAAAUGUGUUUUUAAAAAAUAAUAAAAAUAGAGAAUAUGCAGACAAAAAAA
For B1, the binding result is “binds”.

B2: Acta2 mRNA 3'-most 132 nt WT probe (ssRNA)
RNA: GGUGACCAGAUAGGUAAAAAACAAUUUUACGUGUAUUUAAAAUUUGGCAAGUAAUAUGGUUUUAUUAAAAUCACAUCUUUUGUAUUAAAGCAUACACACGUGCAUGGAUAUGCAUGCGUGACUUUUAACUUG
Consider B2, for which the binding result was “binds”.
